Measurements published in US20250340637A1 (ABPRO, published 2025).
Where two headings read alike, the source gives them in different places.

Tests used:
HuCD3E [1] = target: T1, HuCD3E (Homo sapiens, UniProt P07766 23-126, limits assumed); assay: SPR, Biacore 8K; CD3 Affinity column: Hi
T1 construct: Recombinant analyte in SPR and antigen in ELISA; also called human CD3; human CD3 epsilon
Description: Initially, the affinity measurement of the anti-CD3 clones were determined using a Surface Plasmon Resonance (SPR) biosensor, Biacore 8K (GE Healthcare). The equilibrium dissociation constant (KD) was calculated from the ratio of kd over ka. To determine the contribution of a specific residue to antibody affinity and expression, paratope mapping was performed by screening of NNK libraries. In brief, the VH and VL of the parental antibody were searched by using NCBI Ig-Blast (www.ncbi.nlm.nih.gov/projects/igblast/) and CDRs were defined by the KABAT delineation system. All residues within CDRs were defined and mutated by NNK method. Each individual NNK library was generated per residue based on the FASEBA platform with a theoretical diversity at 20. The DNA encoding both heavy chain and light chain were inserted into a mammalian expression vector, transfected into CHO-S cells, and stable clones of highest expression were selected. Supernatants were collected from shaker flasks and purified on protein A affinity chromatography.
Affinity ranking. Binding between the parental and affinity-tuned bispecific antibodies and human and cyno target proteins (HER2 and CD3) was validated by ELISA, and a Biacore 8K was used to study the kinetics of the interaction between the antigen and the bispecific antibodies.

HuCD3E [2] = target: T1, HuCD3E; assay: SPR, Biacore 8K; CD3 Affinity column: Hi; remark: listed apart in the source

T1 sequence (P07766 23-126 limits assumed): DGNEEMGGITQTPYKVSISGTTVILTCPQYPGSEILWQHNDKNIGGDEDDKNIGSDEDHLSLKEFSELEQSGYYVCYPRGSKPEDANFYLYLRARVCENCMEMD

Binder	Kd (HuCD3E [1]) [nM]	Kd (HuCD3E [2]) [nM]
ABP100s.13 (antibody, V domains shown) VH: EVQLVESGGGLVQPGGSLRLSCAASGFTFNTYAMNWVRQAPGKGLEWVARIRSKYNNYATYYADSVKGRFTISRDDSQSSLYLQMNSLKTEDTAVYYCVRHGNFGNSYVSWFAYWGQGTLVTVSS VL: QAVVTQEPSLTVSPGGTVTLTCGSSTGAVTTSNYANWVQQKPGQAFRGLIGGTNKRAPWTPARFSGSLIGDKAALTLSGAQPEDEAEYFCALWYSNLWVFGGGTKLTVL	< 10	
ABP100s.15 (antibody, V domains shown) VH: EVQLVESGGGLVKPGGSLRLSCAASGFTFNTYAMNWVRQAPGKGLEWVARIRSKYNNYATYYADSVKGRFTISRDDSQSSLYLQMNSLRAEDTAVYYCVRHGNFGNSYVSWFAYWGQGTLVTVSS VL: QAVVTQEPSLTVSPGGTVTLTCGSSTGAVTTSNYANWVQQKPGQAFRGLIGGTNKRAPWTPARFSGSLIGDKAALTLSGAQPEDEAEYFCALWYSNLWVFGGGTKLTVL	< 10	
ABP100s.14 (antibody, V domains shown) VH: EVQLVESGGGLVQPGGSLRLSCAASGFTFNTYAMNWVRQAPGKGLEWVARIRSKYNNYATYYADSVKGRFTISRDDSKSSLYLQMNSLKTEDTAVYYCVRHGNFGNSYVSWFAYWGQGTLVTVSS VL: QAVVTQEPSLTVSPGGTVTLTCGSSTGAVTTSNYANWVQQKPGQAFRGLIGGTNKRAPWTPARFSGSLIGDKAALTLSGAQPEDEAEYFCALWYSNLWVFGGGTKLTVL	< 10	
ABP100s.19 (antibody, V domains shown) VH: EVQLVESGGGLVKPGGSLRLSCAASGFTFNTYAMNWVRQAPGKGLEWVARIRSKYNNYATYYADSVKGRFTISRDDSQSSLYLQMNSLRAEDTAVYYCVRHGNFGNSYVSWFAYWGQGTLVTVSS VL: QAVVTQEPSLTVSPGGTVTLTCGSSTGAVTTSNYANWVQQKPGQAFRGLIGGTNKKASWTPARFSGSLLGDKAALTLSGAQPEDEAEYYCALWYSNLWVFGGGTKLTVL	< 10	
ABP100s.18 (antibody, V domains shown) VH: EVQLVESGGGLVQPGGSLRLSCAASGFTFNTYAMNWVRQAPGKGLEWVARIRSKYNNYATYYADSVKGRFTISRDDSKSSLYLQMNSLKTEDTAVYYCVRHGNFGNSYVSWFAYWGQGTLVTVSS VL: QAVVTQEPSLTVSPGGTVTLTCGSSTGAVTTSNYANWVQQKPGQAFRGLIGGTNKKASWTPARFSGSLLGDKAALTLSGAQPEDEAEYYCALWYSNLWVFGGGTKLTVL	< 10	
ABP100s.11.0 (antibody, V domains shown) VH: EVQLLESGGGLVQPGGSLRLSCAASGFTFNTYAMNWVRQAPGKGLEWVSRIRSKYNNYATYYADSVKDRFTISRDNSKNTLYLQMNSLRAEDTAVYYCAKHGNFGNSYVSWFAYWGQGTTVTVSS VL: QAVVTQEPSLTVSPGGTVTLTCRSSTGAVTTSNYANWFQQKPGQAPRTLIYGTNKRAPWTPARFSGSLLGGKAALTLSGAQPEDEAEYYCALWYSNLWVFGGGTKLTVL		< 10
ABP100s.16 (antibody, V domains shown) VH: EVQLVESGGGLVKPGGSLRLSCAASGFTFNTYAMNWVRQAPGKGLEWVARIRSKYNNYATYYADSVKGRFTISRDDAKSSLYLQMNSLRAEDTAVYYCVRHGNFGNSYVSWFAYWGQGTLVTVSS VL: QAVVTQEPSLTVSPGGTVTLTCGSSTGAVTTSNYANWVQQKPGQAFRGLIGGTNKRAPWTPARFSGSLIGDKAALTLSGAQPEDEAEYFCALWYSNLWVFGGGTKLTVL	< 10	
ABP100s.20 (antibody, V domains shown) VH: EVQLVESGGGLVKPGGSLRLSCAASGFTFNTYAMNWVRQAPGKGLEWVARIRSKYNNYATYYADSVKGRFTISRDDAKSSLYLQMNSLRAEDTAVYYCVRHGNFGNSYVSWFAYWGQGTLVTVSS VL: QAVVTQEPSLTVSPGGTVTLTCGSSTGAVTTSNYANWVQQKPGQAFRGLIGGTNKKASWTPARFSGSLLGDKAALTLSGAQPEDEAEYYCALWYSNLWVFGGGTKLTVL	< 10	
ABP100s.17 (antibody, V domains shown) VH: EVQLVESGGGLVQPGGSLRLSCAASGFTFNTYAMNWVRQAPGKGLEWVARIRSKYNNYATYYADSVKGRFTISRDDSQSSLYLQMNSLKTEDTAVYYCVRHGNFGNSYVSWFAYWGQGTLVTVSS VL: QAVVTQEPSLTVSPGGTVTLTCGSSTGAVTTSNYANWVQQKPGQAFRGLIGGTNKKASWTPARFSGSLLGDKAALTLSGAQPEDEAEYYCALWYSNLWVFGGGTKLTVL	< 10	
ABP100s.22 (antibody, V domains shown) VH: EVQLVESGGGLVQPGGSLRLSCAASGFTFNTYAMNWVRQAPGKGLEWVARIRSKYNNYATYYADSVKGRFTISRDDSKSSLYLQMNSLKTEDTAVYYCVRHGNFGNSYVSWFAYWGQGTLVTVSS VL: QAVVTQEPSFSVSPGGTVTLTCGSSTGAVTTSNYANWVQQTPGQAFRGLIGGTNKRASGVPDRFSGSLLGDKAALTITGAQADDESDYYCALWYSNLWVFGGGTKLTVL	< 10	
ABP100s.21 (antibody, V domains shown) VH: EVQLVESGGGLVQPGGSLRLSCAASGFTFNTYAMNWVRQAPGKGLEWVARIRSKYNNYATYYADSVKGRFTISRDDSQSSLYLQMNSLKTEDTAVYYCVRHGNFGNSYVSWFAYWGQGTLVTVSS VL: QAVVTQEPSFSVSPGGTVTLTCGSSTGAVTTSNYANWVQQTPGQAFRGLIGGTNKRASGVPDRFSGSLLGDKAALTITGAQADDESDYYCALWYSNLWVFGGGTKLTVL	< 10	
47D10-V7 x huSP34-v5 (N297A, K322A) (bispecific antibody, V domains shown, The name carries the substitutions N297A, K322A) VH: EVQLVESGGGLVQPGGSLKLSCAASGFTFNTYAMNWVRQAPGKGLEWVARIRSKYNNYATYYADSVKDRFTISRDDSKNTAYLQMNSLKTEDTAVYYCVRHGNFGNSYVSWFAYWGQGTLVTVSS VL: QTVVTQEPSLTVSPGGTVTLTCRSSTGAVTTSNYANWVQQKPGQAFRGLIGGTNKRAPGVPARFSGSLLGGKAALTLSGVQPEDEAIYFCALWYSNLWVFGGGTKLEIK		< 10
47D10-V7 x huSP34-v5 (bispecific antibody, V domains shown, The name reads as 47D10-V7 arm x huSP34-v5 arm) VH: EVQLVESGGGLVQPGGSLKLSCAASGFTFNTYAMNWVRQAPGKGLEWVARIRSKYNNYATYYADSVKDRFTISRDDSKNTAYLQMNSLKTEDTAVYYCVRHGNFGNSYVSWFAYWGQGTLVTVSS VL: QTVVTQEPSLTVSPGGTVTLTCRSSTGAVTTSNYANWVQQKPGQAFRGLIGGTNKRAPGVPARFSGSLLGGKAALTLSGVQPEDEAIYFCALWYSNLWVFGGGTKLEIK		< 10
ABP100s.24 (antibody, V domains shown) VH: EVQLVESGGGLVKPGGSLRLSCAASGFTFNTYAMNWVRQAPGKGLEWVARIRSKYNNYATYYADSVKGRFTISRDDAKSSLYLQMNSLRAEDTAVYYCVRHGNFGNSYVSWFAYWGQGTLVTVSS VL: QAVVTQEPSFSVSPGGTVTLTCGSSTGAVTTSNYANWVQQTPGQAFRGLIGGTNKRASGVPDRFSGSLLGDKAALTITGAQADDESDYYCALWYSNLWVFGGGTKLTVL	< 10	
32G4-V8 x huSP34-v5 (N297A, K322A) (bispecific antibody, V domains shown, The name carries the substitutions N297A, K322A) VH: EVQLVESGGGLVQPGGSLKLSCAASGFTFNTYAMNWVRQAPGKGLEWVARIRSKYNNYATYYADSVKDRFTISRDDSKNTAYLQMNSLKTEDTAVYYCVRHGNFGNSYVSWFAYWGQGTLVTVSS VL: QTVVTQEPSLTVSPGGTVTLTCRSSTGAVTTSNYANWVQQKPGQAFRGLIGGTNKRAPGVPARFSGSLLGGKAALTLSGVQPEDEAIYFCALWYSNLWVFGGGTKLEIK		< 10
47D10-V7-v5.1 (antibody, V domains shown) VH: EVQLVESGGGLVQPGGSLKLSCAASGFTFNTYAMNWVRQAPGKGLEWVARIRSKYNNYATYYADSVKDRFTISRDDSKNTAYLQMNSLKTEDTAVYYCVRHGNFGNSYVSWFGYWGQGTLVTVSS VL: QTVVTQEPSLTVSPGGTVTLTCRSSTGAVTTSNYANWVQQKPGQAFRGLIGGTNKRAPGVPARFSGSLLGGKAALTLSGVQPEDEAIYFCALWYSNLWVFGGGTKLTVL		< 10
ABP100s.23 (antibody, V domains shown) VH: EVQLVESGGGLVKPGGSLRLSCAASGFTFNTYAMNWVRQAPGKGLEWVARIRSKYNNYATYYADSVKGRFTISRDDSQSSLYLQMNSLRAEDTAVYYCVRHGNFGNSYVSWFAYWGQGTLVTVSS VL: QAVVTQEPSFSVSPGGTVTLTCGSSTGAVTTSNYANWVQQTPGQAFRGLIGGTNKRASGVPDRFSGSLLGDKAALTITGAQADDESDYYCALWYSNLWVFGGGTKLTVL	< 10	
32G4-V8 x huSP34-v5 (bispecific antibody, V domains shown, The name reads as 32G4-V8 arm x huSP34-v5 arm) VH: EVQLVESGGGLVQPGGSLKLSCAASGFTFNTYAMNWVRQAPGKGLEWVARIRSKYNNYATYYADSVKDRFTISRDDSKNTAYLQMNSLKTEDTAVYYCVRHGNFGNSYVSWFAYWGQGTLVTVSS VL: QTVVTQEPSLTVSPGGTVTLTCRSSTGAVTTSNYANWVQQKPGQAFRGLIGGTNKRAPGVPARFSGSLLGGKAALTLSGVQPEDEAIYFCALWYSNLWVFGGGTKLEIK		< 10
32G4-V8-v5.1 (antibody, V domains shown) VH: EVQLVESGGGLVQPGGSLKLSCAASGFTFNTYAMNWVRQAPGKGLEWVARIRSKYNNYATYYADSVKDRFTISRDDSKNTAYLQMNSLKTEDTAVYYCVRHGNFGNSYVSWFGYWGQGTLVTVSS VL: QTVVTQEPSLTVSPGGTVTLTCRSSTGAVTTSNYANWVQQKPGQAFRGLIGGTNKRAPGVPARFSGSLLGGKAALTLSGVQPEDEAIYFCALWYSNLWVFGGGTKLTVL		< 10
